Data from patent US20220356229A1 (published 2022).

B1: antibody 421 (antibody, V domains shown)
VH: QVQLVESGGGVVQPGRSLRLSCAASGFTFSTYAMHWVRQAPGKGLEWVAVISYDGSNKYYADSVKGRFTISRDNSKNTLYLQMNSLRAEDTAVYYCARGYGSGSYYPLYLYWGQGTLVTVSS
VL: not shown
B2: antibody 431 (antibody, V domains shown)
VH: QVQLVESGGGVVQPGRSLRLSCAASGFTFSSYAMHWVRQAPGKGLEWLAVISYDGSNKYYADSVKGRFTISRDNSKNTLYLQMNSLRAEDTAVYYCARSFRGGYYYGMDVWGQGTTVTVSS
VL: DIQLTQSPSFLSASVGDRVTITCRASQGISSYLAWYQQKPGKAPKLLIYAASTLQSGVPSRFSGSGSGTEFTLTISSLQPEDFATYYCQQLNSYPLFTFGPGTKVDIK
B3: antibody 439 (antibody, V domains shown)
VH: QVQLVESGGGVVQPGRSLRLSCAASGFTFSSYAMHWVRQAPGKGLEWVAVISYDGSNKYYADSVKGRFTISRDNSKNTLYLQMNSLRAEDTAVYYCARPPRGGSYYPFDPWGQGTLVTVSS
VL: not shown
B4: antibody 422 (antibody, V domains shown)
VH: QVQLVQSGSELKKPGASVKVSCKASGYTFTSYAMNWVRQAPGQGLEWMGWINTNTGNPTYAQGFTGRFVFSLDTSVSTTYLQISSLKAEDTAVYYCARVIGVVTYYYYGMDVWGQGTTVTVSS
VL: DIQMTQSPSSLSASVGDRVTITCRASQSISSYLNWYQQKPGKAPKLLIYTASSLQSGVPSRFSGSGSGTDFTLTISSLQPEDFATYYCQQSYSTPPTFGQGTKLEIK
B5: antibody 454 (antibody, V domains shown)
VH: QVQLVQSGAEVKKPGASLKVSCKASGYIFTGYYMHWVRQAPGQGLEWMGWISPNSGGTKYAQKFQGRVTMTRDTSISTAYMELSRLRSDDSAVYYCAREPYYDILTGYYTPRRYLDYWGQGTLVTVSS
VL: QSALTQPASVSGSPGQSITISCTGTSSDVGDYNYVSWYQQHPGKVPKLMIYDVSHRPSGVTNRFSGSKSGNTASLTISGLRAEDEADYYCSSYTSSSTYVFGTGTKVTVL
B6: antibody 446 (antibody, V domains shown)
VH: QVQLVESGGGVVQPGRSLRLSCAASGFTFSSYAMHWVRQAPGKGLEWVAVISYDGSNKYYADSVKGRFTISRDNSKNTLYLQMNSLRAEDTAVYYCARPNSGSYFGYFQHWGQGTLVTVSS
VL: QSVLTQPPSVSGAPGQRVTISCTGSSSNIGAGYDVHWYQQLPGTAPKLLIYGNSNRPSGVPDRFSGSKSGTSASLAITGLQAEDEADYYCQSYDSSLSGFYVFGTGTKVTVL
B7: antibody 423 (antibody, V domains shown)
VH: EVQLVESGGGLIQPGGSLRISCAASGFTVRNNHMSWVRQAPGKGLEWVSVFYRGGTTYYADSVKGRFTISRDDSKNTVDLQMNSLRGEDTAVYYCARGLSVAASGYFDCWGQGTLVTVSS
VL: DIQMTQSPSSVSASVGDTVTITCRANQGISSWLAWYQQVPGKAPELLIYATSTLQSGVPSRFSGSGSGTDFTLTISSLQPEDFATYYCQQANSFPFTFGPGTKVDIK
B8: antibody 576 (antibody, V domains shown)
VH: QVQLVESGGGVVQPGRSLRLSCAASGFTFSSYAMHWVRQAPGKGLEWVAVISYDGSNKYYADSVKGRFTISRDNSKNTLYLQMNSLRAEDTAVYYCAKAGGGSYYRGFDYWGQGTLVTVSS
VL: DIQLTQSPSFLSASVGDRVTITCRASQGISSYLAWYQQKPGKAPKLLIYAASTLQSGVPSRFSGSGSGTEFTLTISSLQPEDFATYYCQQLNSYPTFGPGTKVDIK
B9: anti-SARS-CoV-2 antibody 989 (antibody, V domains shown)
VH: QVQLVQSGAEVKKPGASVKVSCKASGYTFTNYYMHWVRQAPGQGLEWMGIINPSDDNTTYAQKIQGRVIMTRDTSTSTVYMELSSLRSEDTAVYYCARAFAEWELLLDYWGQGTLVTVSS
VL: not shown

Each binder was assayed against SARS-CoV-2 full length Spike protein, wild type (SARS-CoV-2, UniProt P0DTC2 14-1208) (assay: not given).
With B1 the “median fluorescence, fold over isotype” value was 505 fold over isotype control. B2 was tested, and the “median fluorescence, fold over isotype” value was 715 fold over isotype control. With B3 the “median fluorescence, fold over isotype” value was 227 fold over isotype control. For B4, the “median fluorescence, fold over isotype” value was 1250 fold over isotype control. B5 was tested, and the “median fluorescence, fold over isotype” value was 1090 fold over isotype control. With B6 the “median fluorescence, fold over isotype” value was 435 fold over isotype control. B7 was tested, and the “median fluorescence, fold over isotype” value was 1190 fold over isotype control.

Molecular target: SARS-CoV-2 full length Spike protein, wild type (SARS-CoV-2, UniProt P0DTC2 14-1208)
Experiment: not given
Remark: another data set of the same source
B8 was tested, and the “median fluorescence intensity, fold over isotype control” value was 566 fold over isotype.

Each binder was assayed against SARS-CoV-2 Spike protein (wild type) (SARS-CoV-2, UniProt P0DTC2 14-1208) (assay: SPR (Carterra LSA), mAb coupled to HC30M chip, Spike titrated; Example 4 methods).
For B9, the Kd was 104 pM.
